Results: US20030092616A1, “STAT6 activation gene” (priority 2001, published 2003)

B1: 417 (nucleic acid, listed as Homo sapiens)
chain: ATTCCTCCCAGGGACCCCAGACCTCTGTCTCTCTCGGCAGGCCTTGGCTCCTTGAACTTTTGGCCGCCATGTACTTCCCGAAGGTCCTCTCTGATGACATGAAGAAGCTGAAGGCCCGAATGCACCAGGCCATAGAAAGATTTTATGATAAAATGCAAAATGCAGAATCAGGACGTGGACAGGTGATGTCGAGCCTGGCAGAGCTGGAGGACGACTTCAAAGAGGGCTACCTGGAGACAGTGGCGGCTTATTATGAGGAGCAGCACCCAGAGCTCACTCCTCTACTTGAAAAAGAAAGAGATGGATTACGGTGCCGAGGCAACAGATCCCCTGTCCCGGATGTTGAGGATCCCGCAACCGAGGAGCCTGGGGAGAGCTTTTGTGACAAGGTCATGAGATGGTTCCAGGCCATGCTGCAGCGGCTGCAGACCTGGTGGCACGGGGTTCTGGCCTGGGTGAAGGAGAAGGTGGTGGCCCTGGTCCATGCAGTGCAGGCCCTCTGGAAACAGTTCCAGAGTTTCTGCTGCTCTCTGTCAGAGCTCTTCATGTCCTCTTTCCAGTCCTACGGAGCCCCACGGGGGGACAAGGAGGAGCTGACACCCCAGAAGTGCTCTGAACCCCAATCCTCAAAATGAAGATACTGACACCACCTTTGCCCTCCCCGTCACCGCGCACCCACCCTGACCCCTCCCTCAGCTGTCCTGTGCCCCGCCCTCTCCCGCACACTCAGTCCCCCTGCCTGGCGTTCCTGCCGCAGCTCTGACCTGGTGCTGTCGCCCTGGCATCTTAATAAAACCTGCTTATACTTCCCTGGC
modifications: CDS (69)..(632)
B2: 423 (nucleic acid, listed as Homo sapiens)
chain: AAAAAAAAAGCTGGGAGCCGCCGCCCCCGCAGCTGCTGCCGCCGCCGCCAGGGCCCGGACTCGGACGCGTGGTAGCCCCAGGATGGGTGAGTTCAACGAGAAGAAGACAACATGTGGCACCGTTTGCCTCAAGTACCTGCTGTTTACCTACAATTGCTGCTTCTGGCTGGCTGGCCTGGCTGTCATGGCAGTGGGCATCTGGACGCTGGCCCTCAAGAGTGACTACATCAGCCTGCTGGCCTCAGGCACCTACCTGGCCACAGCCTACATCCTGGTGGTGGCGGGCACTGTCGTCATGGTGACTGGGGTCTTGGGCTGCTGCGCCACCTTCAAGGAGCGTCGGAACCTGCTGCGCCTGTACTTCATCCTGCTCCTCATCATCTTTCTGCTGGAGATCATCGCTGGTATCCTCGCCTACGCCTACTACCAGCAGCTGAACACGGAGCTCAAGGAGAACCTGAAGGACACCATGACCAAGCGCTACCACCAGCCGGGCCATGAGGCTGTGACCAGCGCTGTGGCAGCAACAACTCACAGGACTGGCGAGACAGTGAGTGGATCCGCTCACAGGAGGCCGGTGGCCGTGTGGTCCCAGACAGCTGCTGCAAGACGGTGGTGGCTCTTTGTGGGCAGCGAGACCATGCCTCCAACATCTACAAGGTGGAGGGCGGCTGCATCACCAAGTTGGAGACCTTCATCCAGGAGCACCTGAGGGTCATTGGGGCTGTGGGGATCGGCATTGCCTGTGTGCAGGTCTTTGGCATGATCTTCACGTGCTGCCTGTACAGGAGTCTCAAGCTGGAGCACTACTGACCCTGCCTTGGGCCTTGCTGCTGCTGCACCCAACTACTGAGCTGAGACCACTGAGTACCAGGGGCTGGGCTCCCTGATGACACCCACCCTGTGCCATCACCATAACCTCTGGGGACCCCAACCTCAGAGGCAGCTTCAAGTGCCTTTTGCTGCGCACCAATGCCCAGCAGGGGAGGTGAGGGGGGCTGGCGGGGCGAAGTTTGGGGGGTGTTTTGTGGGGCTCCCCAGACACACTCTCTGCCTGGTGGTCAGATGCAGGTTGGAAGGGGCCTTGCTGAGTGGCGCAAGGCCGAGCGTTCCCAGCAGGGGGAGAAACCCTTCACACCCCAGGCCCTTCAGGAACTGGGGCCTTGCCTTGCAGCCACATGGCCCCATCCCAGTTGGGGAAGCCAGGTGAGCTCTGACCCTTGGGCCTGGGCCTCTGCCCCTCCCAACCCAGCCCTCGTCTCCCTCGACAGCGCCCCTGCTGTCTTCCCCACCGCAGTCACCACCACCCGAAATGCCACGTGGTCACTGTGCACTGCCCTGTCCATGTGCCTCTGCGGGGCAGGGCCTTCCTGGTTTTGTTCACTGCTGTACCCAGATGCCTACAACCATCCCTGCCACATACAGGTGCTCAATAAACACTTGTAGAGCAGATGG
modifications: CDS (83)..(709)
B3: 413 (nucleic acid, listed as Homo sapiens)
chain: GAGGAGGCCGCGCCAGTGACAGCGATGGCGGCGGAGTCGGCGCTCCAAGTTGTGGAGAAGCTGCAGGCGCGCCTGGCCGCGAACCCGGACCCTAAGAAGCTATTGAAATATTTGAAGAAACTCTCCACCCTGCCTATTACAGTAGACATTCTTGCGGAGACTGGGGTTGGGAAAACAGTAAATAGCTTGCGAAAACACGAGCATGTTGGAAGCTTTGCCAGGGACCTAGTGGCCCAGTGGAAGAAGCTGGTTCCTGTGGAACGAAATGCTGAGCCTGATGAACAGGACTTTGAGAAGAGCAATTCCCGAAAGCGCCCTCGGGATGCCCTGCAGAAGGAGGAGGAGATGGAGGGGGACTACCAAGAAACCTGGAAAGCCACGGGGAGCCGATCCTATAGCCCTGACCACAGGCAGAAGAAACATAGGAAACTCTCGGAGCTCGAGAGACCTCACAAAGTGTCTCACGGTCATGAGAGGAGAGATGAGAGAAAGAGGTGTCACAGAATGTCACCAACTTACTCTTCAGACCCTGAGTCTTCTGATTATGGCCATGTTCAATCCCCTCCATCTTGTACCAGTCCTCATCAGATGTACGTCGACCACTACAGATCCCTGGAGGAGGACCAGGAGCCCATTGTTTCACACCAGAAGCCTGGGAAAGGCCACAGCAATGCCTTTCAGGACAGACTCGGGGCCAGCCAAGAACGACACCTGGGTGAACCCCATGGGAAAGGGGTTGTGAGTCAAAACAAGGAGCACAAATCTTCCCACAAGGACAAACGCCCCGTGGATGCCAAGAGTGATGAGAAGGCCTCTGTGGTGAGCAGAGAGAAATCACACAAGGCCCTCTCCAAAGAGGAGCCGGCCTATGATGGCCCAAGCACCAGCAGTGCCCACTTGGCACCAGTGGTCAGCAGCACTGTTTCCTATGATCCTAGGAAACCCACTGTGAAGAAAATTGCCCCAATGATGGCCAAGACAATTAAAGCTTTCAAGAACAGATTCTCCCGACGATAAACTGAGGACTTGCCTTGGAAATGGAATCTGGGGAGGCAGGAATACAAGGACAGTGGGGGTTGGGGAATGGAATTCTACAGGAGACTGGAGTCTTGCTTTGTGGATCCTTTTGGTCTCCGAGTCCTGCAGTCTGCAGGTGCTGCCCCTGGGAACCTGCGTGCCACAGCCCCGCCTCCCTGCCTGGAGCACACTTTAGAATTCTGAAGATGTGAAGCCTCTGTCTCACTGAGGATTTTAAAGGTCAATTATACTTTTGTTGTTCATTAGCATCTTTGTAAACTATAAGACGTAGTTTTAATTAATAAATATTGCCCCCAGATTGTATTT
modifications: CDS (25)..(1014)

test system: STAT6; assay: Screening of full-length cDNA clones for promotion of STAT6 activation (luciferase reporter N4×8-luc); format: cell-based; conditions: NIH3T3 cells cotransfected with N4×8-luc reporter and cDNA plasmid; 48 h culture, then mouse IL-4 0.5 ng/ml for 6 h
Summary of the method: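 Promotion of STAT6 activation scored as increase in luciferase signal over null-vector control cells. NIH3T3 cells carried N4×8-luc (100 ng) plus cDNA clone; after 48 h culture, 6 h stimulation with 0.5 ng/ml (final) mouse IL-4 preceded reading.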

In order of falling “Activity = (luciferase activity of the gene of each SEQ ID NO:)/(luciferase activity of pME18S-FL3)” value:
1. B1  13.4
2. B2  4.8
3. B3  3.4
